Measurements from patent US20260102461A1 (AIKIUM, published 2026).

Tests used:
[1] = target: T1, KCNA6 Epitope QQQEQQPASGGGGQNGQQAMS (biotin (position not given)); test: ELISA, scaffold coated on the plate, biotinylated peptide titrated, streptavidin-HRP fluorescence
T1 peptide: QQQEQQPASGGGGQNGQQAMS
Description: (§1) Binder proteins were coated on the surface of a high binding capacity 96 well plate by incubating 100 μL of protein at […] in a coating solution (10 mM Tris pH 8.8, 50 mM NaCl), overnight at 4 C. The next morning, the coating solution was aspirated out and wells were washed once with 300 μL ELISA wash buffer (lx PBS, 0.05% Tween-20) and solution was aspirated out. The wells were blocked with 200 μL of a blocking buffer (1×PBS, 0.05% Tween-20, 3% BSA) at room temperature for 1 hour. After one hour, the blocking solution was aspirated out and 100 μL of biotinylated polypeptide in a binding buffer (1×PBS, 0.05% Tween-20, 0.5% BSA) at various concentrations was added to the appropriate well and incubated for 20 minutes. Peptide solution was aspirated out after 20 minutes and wells were washed 5 times with 300 μL of ELISA wash buffer. To detect the biotinylated peptide, 100 μL of streptavidin-HRP (50 ng/mL) was added to each well and incubated for 1 hour. The wells were subsequently washed 5 times with 300 μL of ELISA wash buffer. 100 μL of QuantaBlu Fluorogenic Peroxidase substrate solution was added to each well, incubated for 30 minutes and reaction stopped by adding 100 μL of stop solution. Fluorescent signal from each well was measured using a Biotek Cytation5 plate reader by exciting the fluorophore at […] and measuring emission at 420 nm. Fluorescent signals were plotted as a function of polypeptide concentration.

[2] = target: T2, TNFRSF13B disordered region peptide, LPPELRRQRSGEVENNSDNSGRYQ (biotin (position not given)); test: as above
T2 peptide: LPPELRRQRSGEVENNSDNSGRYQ
Description: as §1

[3] = target: T3, CD40LG Epitope NKEETKKENSFEMQKGDQNPQIAAH (biotin (position not given)); test: as above
T3 peptide: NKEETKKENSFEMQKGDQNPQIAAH
Description: as §1

[4] = target: T4, GMERKFMSLQPSISVSEMEPNGTFSNNNSRNCTIENFKREFFP (biotinylated, position not given); test: as above
T4 peptide: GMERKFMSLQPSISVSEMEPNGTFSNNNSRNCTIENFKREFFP
Description: as §1

[5] = target: T5, CYSLTR2 Epitope SISVSEMEPNGTFSNNNSRNC (N-terminally biotinylated); test: as above
T5 peptide: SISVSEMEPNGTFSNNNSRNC
Description: as §1

[6] = target: T6, KAAG1 disordered region peptide, PGAAAAHLPRWPPPQLAASRREA (biotin (position not given)); test: as above
T6 peptide: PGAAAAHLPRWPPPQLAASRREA
Description: as §1

[7] = target: T7, CYSLTR2 N-terminal disordered region, MERKFMSLQPSISVSEMEPNGTFSNNNSRNCTIENFKREFFP (biotin (position not given)); test: as above
T7 construct: also called CysLT2; CysLT2r
T7 peptide: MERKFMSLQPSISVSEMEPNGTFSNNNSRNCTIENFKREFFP
Description: as §1

[8] = target: T6, KAAG1 disordered region peptide, …; test: modified sandwich ELISA (scaffold coated, biotinylated peptide, streptavidin-HRP fluorescence)
[9] = target: T8, CD74 disordered region peptide (CLIP), PPKPVSKMRMATPLLMQALPMGALP (biotin (position not given)); test: modified sandwich ELISA, fluorescence grade (key: >400000, Strong binding)
T8 peptide: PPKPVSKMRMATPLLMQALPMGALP

[10] = target: T9, Urotensin-2 receptor (UR-II-R) disordered region, MALTPESPSSFPGLAATGSSVPEPPGGPNATLNSSWASPTEPSSLEDLVATGTI (biotin (position not given)); test: modified sandwich ELISA (scaffold coated, biotinylated peptide, streptavidin-HRP fluorescence)
T9 construct: also called Urotensin II R; GPCR2 (Urotensin II)
T9 peptide: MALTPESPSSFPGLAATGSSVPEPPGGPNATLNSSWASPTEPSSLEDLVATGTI

B1: S193 (designed binder)
chain: MGSKARMATGALAQAGGSGGSMIKEEHVINQAEYYLNPDQSGEFKFDFDGDEIFHVDMAKKETVWRLEEFGRFASFEAQGALAHIAVDKANLEIMTKRSNYTPMGDTRPRFLWQLKYECHFFNGTERVRLNERCIYNQEESVRFDSDVGEYRAVTELGRPDAEQWNSQKDHLEQRRAAVDTKCRHNYGVGESFTVQGGSHHHHHH
B1: no binding (tested: 10000 nM) [1]; no binding (tested: 10000 nM) [2]; no binding (tested: 10000 nM) [3]. B1: binds [4]; binds [5]; no binding (tested: 10000 nM) [6].

B2: S171 (designed binder)
chain: GDTRPRFLWQLKWECHFYNGTERVRLNERCNYNQEESVRFDSDVGEYRAVTELGRPDAEFSNSQKDNLEQRRAAVDTLCRHNYGVGESFTVQRRSGGGIKEEHVINQAEYYLNPDQSGEFKFDFDGDEIFHVDMAKKETVWRLEEFGRFAIIEAYGALANIAVDKANLEIMTKQSNYT
notes: Computationally derived scaffold
B2: no binding (tested: 10000 nM) [7]; no binding (tested: 10000 nM) [6].

B3: S189 (designed binder)
single chain: MGIKEEHVINQAEYCLNPDQSGEFKFDFDGDEIFHVDMAKKETVWRLEEFGRFASFEAQGALAHIAVDCANLEIMTKRSNYTPMGDTRPRFLWQLKYECHFFNGTERVRLNERCIYNQEESVRFDSDVGEYRAVTELGRPDAEQWNSQKDHLEQRRAAVDTKCRHNYGVGESFTVQGGSHHHHHH
B3: binds [4]; binds [5].

B4: S194 (designed binder)
chain: MGIKEEHVINQAEYYLNPDQSGEFKFDFDGDEIFHVDMAKKETVWRLEEFGRFASFEAQGALAHIAVDKANLEIMTKRSNYTPMGGGSKARMATGALAQAGGSGGSGDTRPRFLWQLKYECHFFNGTERVRLNERCIYNQEESVRFDSDVGEYRAVTELGRPDAEQWNSQKDHLEQRRAAVDTKCRHNYGVGESFTVQGGSHHHHHH
B4: no binding (tested: 10000 nM) [1]; no binding (tested: 10000 nM) [2]; no binding (tested: 10000 nM) [3]. B4: binds [4]; binds [5]; no binding (tested: 10000 nM) [6].

B5: S077 (designed binder)
chain: KPVSKMRMATPLLMQALPMASGGGGSGGGGDTRPRFLWQLKFECHFFNGTERVRLLERCIYNQEESVRFDSDVGEYRAVTELGRPDAEYWNSQKDLLEQRRAAVDTYCRHNYGVGESFTVQRRSGGGIKEEHVIIQAEFYLNPDQSGEFMFDFDGDEIFHVDMAKKETVWRLEEFGRFASFEAQGALANIAVDKANLEIMTKRSNYTGGSHHHHHHLE
In the case of B5, the binding result [8] is reported as “no binding (tested: <5000 (fluorescence signal, key))” and the fluorescent signal [9] is reported as > 400000 fluorescentsignal.

B6: S058 (designed binder)
chain: GSHSMRYNYTSVSRPGRGEPRFISEGYVDDTQFVRFDSDAASPREEPRAPWIEQEGPEYWDRNTQIYKAQAQTDRESLRNLRGYYNQSEAGSHTLQSMYGCDVGPDGRLLRGHDQYYYDGKDYISLNEDLRSWTAADTAAQITQRKWEAAREAEQRRAYLEGECVEWLRRYLENGKDKLERADGGSHHHHHHLE
notes: Derived from MHC I proteins
B6: binds [6]; no binding (tested: <5000 (fluorescence signal, key)) [10].

B7: S065 (designed binder)
chain: GSHSMRYFYTSVSRPGRGEPRFISVGYVDDTQFVRFDSDAASPREEPRAPWIEQEGPEAWDRNTQIYKAQAQTDRESLRNLRGYYNQSEAGSHTLQSMYGCDVGPDGRLLRGHDQYAYDGKDSIALNEDLRSWTAADTAAQITQRYWEAAREAEQRRAYLEGECVEHLRRVLENGKDKLERADGGSHHHHHHLE
notes: Derived from MHC I proteins
B7: no binding (tested: 10000 nM) [6]; no binding (tested: <5000 (fluorescence signal, key)) [10].

B8: S134 (designed binder)
chain: MVKYHHHHHHGGSENLYFQGMGDTRPRFLWQPKRECHFFNGTERVRFLDRYFYNQEESVRFDSDVGEFRAVTELGRPDAEYWNSQKDILEQARAAVDTYCRHNYGVVESFTVQRRVIKEEHVIIQAEFYLNPDQSGEFMFDFDGDEIFHVDMAKKETVWRLEEFGRFASFEAQGALANIAVDKANLEIMTKRSNYTPITN
B8: no binding (tested: <5000 (fluorescence signal, key)) [8].

B9: S068 (designed binder)
chain: GDTRPRFLWQLKFECHFFNGTERVRLLERCIYNQEESVRFDSDVGEYRAVTELGRPDAEYWNSQKDLLEQRRAAVDTYCRHNYGVGESFTVQRRVEPKVTVYPSKTQPLQHHNLLVCSVSGFYPGSIEVRWFRNGQEEKAGVVSTGLIQNGDWTFQTLVMLETVPRSGEVYTCQVEHPSVTSPLTVEWRASGGGGSGGGGSGGGGIKEEHVIIQAEFYLNPDQSGEFMFDFDGDEIFHVDMAKKETVWRLEEFGRFASFEAQGALANIAVDKANLEIMTKRSNYTPITNVPPEVTVLTNSPVELREPNVLICFIDKFTPPVVNVTWLRNGKPVTTGVSETVFLPREDHLFRKFHYLPFLPSTEDVYDCRVEHWGLDEPLLKHWEFDAPSGGSHHHHHHLE
In the case of B9, the binding result [8] is reported as “no binding (tested: <5000 (fluorescence signal, key))” and the fluorescent signal [9] is reported as > 400000 fluorescentsignal.

B10: S180 (designed binder)
single chain: MKEEHVIIQAEFYLNPDQSGEFMFDFDGDEIFHVDMAKKETVWRLEEFGRFASFEAQGALANIAVDKANLEIMTKRSNYTPITNTRPRFLWQPKRECHFFNGTERVRFLDRYFYNQEESVRFDSDVGEFRAVTELGRPDAEYWNSQKDILEQARAAVDTYCRHNYGVVESFTVQRRVQGGSHHHHHHLE
B10: binds [4]; binds [5].

B11: S164 (designed binder)
chain: GIKEEHSIRQNEKYNNPDQSGNFEFHLDGQPIFRVDMQKKRTKWQLEEFGRFASFEAQGALANIAVFKINLEIMTKRSNQSEAGSHSWQLNFTCEFHEGTESVRLSERSYYNQENFVSFNSDVGEYRATTELGRPMAEYVNSQKDTLEQRRAAVDTYCRHNYGVGEYFTVQRR
notes: as for B2
B11: no binding (tested: 10000 nM) [7]; no binding (tested: 10000 nM) [6].

B12: S143 (designed binder)
chain: MGDTRPRFLWQLKFECHFFNGTERVRLLERCIYNQEESVRFDSDVGEYRAVTELGRPDAEYWNSQKDLLEQRRAAVDTYCRHNYGVGESFTVQRRVIKEEHVIIQAEFYLNPDQSGEFMFDFDGDEIFHVDMAKKETVWRLEEFGRFASFEAQGALANIAVDKANLEIMTKRSNYTPTINGGSHHHHHH
In the case of B12, the binding result [8] is reported as “no binding (tested: <5000 (fluorescence signal, key))” and the fluorescent signal [9] is reported as > 400000 fluorescentsignal.
